Source: article PMC6208778, “eIF2A, an initiator tRNA carrier refractory to eIF2α kinases, functions synergistically with eIF5B” (Cellular and Molecular Life Sciences: CMLS, 2018)
Values belong to the binder of their own block, whether it stands above or below them.

Tests used:
[1] = molecular target: T1, GST-fused ΔeIF5B(587–1220) (UniProt O60841 587-1220); experiment: pull-down; GST pull-down with recombinant proteins purified from E. coli extracts; GST fusions as bait, His–eIF2A detected by western blotting with anti-His; conditions: both partners purified
T1 construct: eukaryotic initiation factor 5B (eIF5B), residues 587–1220, lacking the N-terminal region; also called GST–eIF5B; GST–eIF5B (587–1220); source: E. coli BL21, purified
T1 sequence (looked up): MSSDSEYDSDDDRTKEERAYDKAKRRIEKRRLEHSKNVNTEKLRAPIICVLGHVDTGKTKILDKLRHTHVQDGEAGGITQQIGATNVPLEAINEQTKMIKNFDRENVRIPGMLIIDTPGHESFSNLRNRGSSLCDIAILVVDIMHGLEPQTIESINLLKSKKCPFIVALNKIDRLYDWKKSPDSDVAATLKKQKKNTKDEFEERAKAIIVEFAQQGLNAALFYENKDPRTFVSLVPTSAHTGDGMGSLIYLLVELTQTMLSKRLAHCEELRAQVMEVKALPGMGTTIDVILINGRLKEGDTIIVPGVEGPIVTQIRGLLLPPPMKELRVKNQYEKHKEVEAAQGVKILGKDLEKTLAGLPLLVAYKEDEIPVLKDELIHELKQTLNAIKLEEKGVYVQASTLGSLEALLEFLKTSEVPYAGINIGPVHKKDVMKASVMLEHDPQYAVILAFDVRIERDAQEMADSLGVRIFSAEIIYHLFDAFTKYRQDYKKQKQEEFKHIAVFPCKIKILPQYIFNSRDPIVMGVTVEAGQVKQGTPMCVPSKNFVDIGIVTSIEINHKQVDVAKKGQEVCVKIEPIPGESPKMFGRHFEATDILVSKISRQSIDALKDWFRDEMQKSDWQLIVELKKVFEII

[2] = molecular target: T2, His-tagged eIF5B (587–1220) (UniProt O60841 587-1220); experiment: co-IP; purified His-tagged eIF5B (587–1220) and GST-fused eIF2A (462–501) mixed; the former precipitated with an anti-His-conjugated resin; western blotting with anti-GST; conditions: both partners purified
T2 construct: eIF5B, residues 587–1220; The methods describe only the GST-fused eIF5B; also called purified eIF5B; source: purified
T2 sequence (looked up): T1 sequence (looked up)

binding result [1]: binds
B1: His-tagged eIF2A (natural protein, human, UniProt Q9BY44 1-585, looked up)
chain: MAPSTPLLTVRGSEGLYMVNGPPHFTESTVFPRESGKNCKVCIFSKDGTLFAWGNGEKVNIISVTNKGLLHSFDLLKAVCLEFSPKNTVLATWQPYTTSKDGTAGIPNLQLYDVKTGTCLKSFIQKKMQNWCPSWSEDETLCARNVNNEVHFFENNNFNTIANKLHLQKINDFVLSPGPQPYKVAVYVPGSKGAPSFVRLYQYPNFAGPHAALANKSFFKADKVTMLWNKKATAVLVIASTDVDKTGASYYGEQTLHYIATNGESAVVQLPKNGPIYDVVWNSSSTEFCAVYGFMPAKATIFNLKCDPVFDFGTGPRNAAYYSPHGHILVLAGFGNLRGQMEVWDVKNYKLISKPVASDSTYFAWCPDGEHILTATCAPRLRVNNGYKIWHYTGSILHKYDVPSNAELWQVSWQPFLDGIFPAKTITYQAVPSEVPNEEPKVATAYRPPALRNKPITNSKLHEEEPPQNMKPQSGNDKPLSKTALKNQRKHEAKKAAKQEARSDKSPDLAPTPAPQSTPRNTVSQSISGDPEIDKKIKNLKKKLKAIEQLKEQAATGKQLEKNQLEKIQKETALLQELEDLELGI
notes: eukaryotic initiation factor 2A (eIF2A); also called His–eIF2A; eukaryotic initiation factor 2A; source: E. coli M15 (plasmid pQE31/His–eIF2A), purified

binding result [2]: binds
B2: GST–eIF2A (462–501) (domain or fragment, human, UniProt Q9BY44 462-501, looked up)
chain: HEEEPPQNMKPQSGNDKPLSKTALKNQRKHEAKKAAKQEA
notes: also called M domain; source: E. coli BL21, purified
